Source: PMC4682080

Experiments:
[1] = target: GAPDH (UniProt P04406); details: cited from earlier work
[2] = target: Glyceraldehyde-3-phosphate dehydrogenase (rabbit muscle GAPDH) (rabbit) (UniProt P46406)
Chain of UniProt P46406 (P46406 whole entry): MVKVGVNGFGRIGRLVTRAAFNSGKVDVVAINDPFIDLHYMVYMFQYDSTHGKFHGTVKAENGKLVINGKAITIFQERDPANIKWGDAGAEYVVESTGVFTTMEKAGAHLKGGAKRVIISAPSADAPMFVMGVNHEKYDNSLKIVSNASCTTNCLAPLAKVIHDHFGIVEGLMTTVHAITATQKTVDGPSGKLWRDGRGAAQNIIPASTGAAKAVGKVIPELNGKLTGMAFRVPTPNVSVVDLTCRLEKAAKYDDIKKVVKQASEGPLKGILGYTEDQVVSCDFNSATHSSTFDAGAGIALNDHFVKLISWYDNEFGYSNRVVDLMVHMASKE

Chain of Lactoferrin (P02788 20-710): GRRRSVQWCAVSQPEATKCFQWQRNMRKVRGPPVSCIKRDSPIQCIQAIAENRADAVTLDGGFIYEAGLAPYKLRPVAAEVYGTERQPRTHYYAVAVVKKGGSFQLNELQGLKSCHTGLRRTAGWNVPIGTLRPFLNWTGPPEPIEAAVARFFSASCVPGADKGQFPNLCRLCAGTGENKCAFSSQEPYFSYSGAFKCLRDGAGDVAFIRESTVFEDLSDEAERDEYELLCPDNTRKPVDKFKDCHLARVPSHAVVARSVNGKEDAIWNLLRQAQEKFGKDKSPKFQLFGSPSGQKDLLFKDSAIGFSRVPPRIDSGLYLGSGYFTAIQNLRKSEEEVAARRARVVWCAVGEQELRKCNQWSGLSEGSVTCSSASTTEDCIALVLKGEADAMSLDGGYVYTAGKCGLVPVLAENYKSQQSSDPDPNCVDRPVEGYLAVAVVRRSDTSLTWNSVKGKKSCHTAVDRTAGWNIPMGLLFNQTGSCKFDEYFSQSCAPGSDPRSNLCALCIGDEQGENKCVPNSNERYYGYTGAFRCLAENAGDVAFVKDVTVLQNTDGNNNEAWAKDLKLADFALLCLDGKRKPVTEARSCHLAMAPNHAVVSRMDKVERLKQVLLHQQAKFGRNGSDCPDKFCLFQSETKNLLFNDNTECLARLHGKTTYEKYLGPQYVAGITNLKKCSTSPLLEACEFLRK
Chain of UniProt P04406 (P04406 2-335): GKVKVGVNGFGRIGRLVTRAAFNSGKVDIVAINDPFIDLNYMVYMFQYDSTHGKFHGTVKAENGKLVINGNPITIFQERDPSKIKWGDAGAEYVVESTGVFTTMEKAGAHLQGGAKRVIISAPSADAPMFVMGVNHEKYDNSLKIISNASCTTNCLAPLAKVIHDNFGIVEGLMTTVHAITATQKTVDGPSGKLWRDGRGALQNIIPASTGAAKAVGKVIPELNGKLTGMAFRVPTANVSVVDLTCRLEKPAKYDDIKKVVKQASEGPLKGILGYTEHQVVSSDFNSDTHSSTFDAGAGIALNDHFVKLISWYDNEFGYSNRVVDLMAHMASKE

Substance: Lactoferrin (from UniProt P02788)
- Kd [1]: 43.8 nM

Substance: human lactoferrin (natural protein)
- Fold change in Lactoferrin MFI of cells internalizing both GAPDH and Lf vs. only lactoferrin +ve cells; CHO [2]: 4.95 fold
- Fold change in Lactoferrin MFI of cells internalizing both GAPDH and Lf vs. only lactoferrin +ve cells; CHO-TRVb [2]: 2.83 fold
- Fold change in Lactoferrin MFI of cells internalizing both GAPDH and Lf vs. only lactoferrin +ve cells; Human Lymphocytes [2]: 1.27 fold
- Fold change in Lactoferrin MFI of cells internalizing both GAPDH and Lf vs. only lactoferrin +ve cells; J774 [2]: 2.62 fold
- Fold change in Lactoferrin MFI of cells internalizing both GAPDH and Lf vs. only lactoferrin +ve cells; K562 [2]: 1.6 fold
- Fold change in Lactoferrin MFI of cells internalizing both GAPDH and Lf vs. only lactoferrin +ve cells; Mouse Bone Marrow cells [2]: 3.7 fold
- Fold change in Lactoferrin MFI of cells internalizing both GAPDH and Lf vs. only lactoferrin +ve cells; Mouse Enterocytes [2]: 5.52 fold
- Fold change in Lactoferrin MFI of cells internalizing both GAPDH and Lf vs. only lactoferrin +ve cells; Mouse Hepatocytes [2]: 4.28 fold
- Fold change in Lactoferrin MFI of cells internalizing both GAPDH and Lf vs. only lactoferrin +ve cells; Mouse Peritoneal Macrophages (Ex vivo) [2]: 1.17 fold
- Fold change in Lactoferrin MFI of cells internalizing both GAPDH and Lf vs. only lactoferrin +ve cells; Mouse Spleen Macrophages [2]: 2.1 fold
- Fold change in Lactoferrin MFI of cells internalizing both GAPDH and Lf vs. only lactoferrin +ve cells; Mouse peritoneum cells (In-Vivo) [2]: 6.1 fold
- Fold change in Lactoferrin MFI of cells internalizing both GAPDH and Lf vs. only lactoferrin +ve cells; Neuro-2A (N2A) [2]: 4.02 fold
- Fold change in Lactoferrin MFI of cells internalizing both GAPDH and Lf vs. only lactoferrin +ve cells; PMA activated THP1 [2]: 2.07 fold
